Experimental findings from paper PMC5826585 are described below.

This data set has as its target IGF2BP2-dRRM (Homo sapiens, UniProt Q9Y6M1 158-599). Briefly: pull-down.

Sequence of IGF2BP2-dRRM (Q9Y6M1 158-599): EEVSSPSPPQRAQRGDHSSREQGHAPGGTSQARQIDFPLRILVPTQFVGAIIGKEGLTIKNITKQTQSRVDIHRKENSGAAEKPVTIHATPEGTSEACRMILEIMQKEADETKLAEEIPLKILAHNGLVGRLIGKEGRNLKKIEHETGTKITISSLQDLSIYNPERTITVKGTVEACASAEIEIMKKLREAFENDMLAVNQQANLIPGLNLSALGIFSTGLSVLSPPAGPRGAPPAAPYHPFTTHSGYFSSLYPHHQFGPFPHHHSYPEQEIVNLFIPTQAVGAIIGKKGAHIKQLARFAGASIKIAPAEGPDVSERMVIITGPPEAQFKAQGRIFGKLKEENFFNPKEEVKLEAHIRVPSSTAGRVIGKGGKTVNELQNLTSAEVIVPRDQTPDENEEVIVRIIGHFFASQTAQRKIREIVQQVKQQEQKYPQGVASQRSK

B1: ss-m6A (biotin) (ssRNA)
RNA: CGUCUCGGACUCGGACUGCU
modifications: m6A at positions 9 and 15
As to B1, the binding result is given as “binds”.
